T1: FcγRIIa soluble extracellular domain, C-terminal His-tag (UniProt P12318 34-217, limits assumed)
T1 construct: extracellular domain
T1 sequence (looked up): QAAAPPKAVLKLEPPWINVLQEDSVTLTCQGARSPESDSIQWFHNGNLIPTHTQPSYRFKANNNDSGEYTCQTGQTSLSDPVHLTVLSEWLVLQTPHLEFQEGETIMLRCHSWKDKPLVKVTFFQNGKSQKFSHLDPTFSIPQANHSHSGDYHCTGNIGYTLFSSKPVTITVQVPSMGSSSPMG

T2: FcγRIIb soluble extracellular domain, C-terminal His-tag (UniProt P31994 43-217, limits assumed)
T2 construct: extracellular domain
T2 sequence (looked up): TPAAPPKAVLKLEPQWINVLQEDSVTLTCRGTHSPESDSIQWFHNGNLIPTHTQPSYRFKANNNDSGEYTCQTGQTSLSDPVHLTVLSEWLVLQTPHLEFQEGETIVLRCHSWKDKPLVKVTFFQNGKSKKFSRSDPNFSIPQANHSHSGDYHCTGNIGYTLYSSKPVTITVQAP


Key:
His-tagged FcRn = molecular target: T3, His-tagged FcRn (UniProt P55899 24-297; P61769 21-119); assay: AlphaScreen competition at pH 6.0: unlabeled competitor antibody titrated against biotinylated wild-type IgG1 (legend: mAb RSV-L) on streptavidin donor beads for His-tagged FcRn on nickel acceptor beads
T3 construct: also called neonatal Fc receptor

[1] = molecular target: T1, FcγRIIa soluble extracellular domain, …; assay: AlphaScreen competition at pH 7.2: unlabeled competitor antibody titrated against biotinylated wild-type IgG1 (legend: mAb RSV-L) on streptavidin donor beads for His-tagged FcγRIIa (10 ng/mL) on nickel acceptor beads
[2] = molecular target: T2, FcγRIIb soluble extracellular domain, …; assay: AlphaScreen competition at pH 7.2: unlabeled competitor antibody titrated against biotinylated wild-type IgG1 (legend: mAb RSV-L) on streptavidin donor beads for His-tagged FcγRIIb (14 ng/mL) on nickel acceptor beads
[3] = molecular target: T4, FcγRI soluble extracellular domain, C-terminal His-tag (UniProt P12314 16-292, limits assumed); assay: AlphaScreen competition at pH 7.2: unlabeled competitor antibody titrated against biotinylated IgG1-L234A/L235A (legend: mAb RSV-L) on streptavidin donor beads for His-tagged FcγRI (200 ng/mL) on nickel acceptor beads
T4 construct: extracellular domain

[4] = molecular target: T5, FcγRIIIa soluble extracellular domain, C-terminal His-tag (UniProt P08637 17-208, limits assumed); assay: AlphaScreen competition at pH 7.2: unlabeled competitor antibody titrated against biotinylated wild-type IgG1 (legend: mAb RSV-L) on streptavidin donor beads for His-tagged FcγRIIIa (200 ng/mL) on nickel acceptor beads
T5 construct: extracellular domain

Row | Binder | IC50 (read off the curve) (His-tagged FcRn) [nM] | IC50 (read off the curve) [1] [nM] | IC50 (read off the curve) [2] [nM] | IC50 (read off the curve) [3] [nM] | IC50 (read off the curve) [4] [nM]
1 | bsRSV-L[Q311R] (bispecific antibody, human IgG1, kappa, also called bispecific anti-RSV/gp120 with asymmetrical F405L Q311R) heavy 1: not shown light 1: EIVLTQSPGTLSLSPGERATFSCRSSHSIRSRRVAWYQHKPGQAPRLVIHGVSNRASGISDRFSGSGSGTDFTLTITRVEPEDFALYYCQVYGASSYTFGQGTKLERKRTVAAPSVFIFPPSDEQLKSGTASVVCLLNNFYPREAKVQWKVDNALQSGNSQESVTEQDSKDSTYSLSSTLTLSKADYEKHKVYACEVTHQGLSSPVTKSFNRGEC heavy 2: not shown light 2: not shown | ~50 | ~100 | ~100 | ~4 | ~80
2 | bsRSV-L[TLQ] (bispecific antibody, human IgG1, kappa, also called bispecific anti-RSV/gp120 with asymmetrical F405L/T307P/L309Q/Q311R) heavy 1: not shown light 1: EIVLTQSPGTLSLSPGERATFSCRSSHSIRSRRVAWYQHKPGQAPRLVIHGVSNRASGISDRFSGSGSGTDFTLTITRVEPEDFALYYCQVYGASSYTFGQGTKLERKRTVAAPSVFIFPPSDEQLKSGTASVVCLLNNFYPREAKVQWKVDNALQSGNSQESVTEQDSKDSTYSLSSTLTLSKADYEKHKVYACEVTHQGLSSPVTKSFNRGEC heavy 2: not shown light 2: not shown | ~100 | ~100 | – | ~4 | ~80

Source: patent publication US20180346605A1 (Janssen / Centocor, published 2018)
